Laboratory results published in WO2005035751A1 (dated 2005).
Residue numbers refer to the chain shown, from its start.

B1: MI3-26 (scFv)
scFv: MASMTGGQQMGQVTLKECGPGILQPSQTLSLTCSFSGFSLSTSGMSVGWIRQPSGKGLKWLAHIWWNDDKYYNPAPKSRLTISKDTSNNQVFLKIASVVTADTATYYCARIARISYYFDYWGQGTTLTVSSAKTSRPSGGGGSGGGGTGGVGSRGGSSIEGRDIQLTQPPSFLSASLGDRVSLTCRVSQDIGSSLNWLQQDPDGTIKRLIYAISSIDSGVPKRFSGNRSESDYSLTISSLESEDFVDYYCLQYASTPPTFGGGTKLEIKRDYKDDDDKRTSRVRLHHHHHHHKK
notes: Single-chain antibody translated in wheat germ extract
B2: MI3-41 (scFv)
scFv: MASMTGGQQMGQVTLKESGPGILQPSQTLSLTCSFSGFSLSTSGMGVGWIRQPSGKGLEWLAHIWRDDVKRYNPALKSRLTISKDTSSSQVFLKIASMDTADTATYYCARIYYYGPYFDVWGAGTTVTVSLAKTSRPSGGGGSGRGGSGGAGSGGGGSIEGRDIQLTQPPSFLSASLGDRVSLTCRVSQDIGSSLNWLQQDPDGTIKRLIYAISSIDSGVPKRFSGNRSESDYSLTISSLESEDFVDYYCLQYASTPPTFGGGTKLEIKRDYKDDDDKRTSRVRLHHHHHHHKK
notes: as for B1
B3: MI3-42 (scFv)
scFv: B2 scFv with M10K, R145G, I206V
notes: as for B1
B4: MI3-34 (scFv, V domains shown)
VH: QVTLKESGPGILQPSQTLSLTCSFSGFSLSTSGMGVGWIRQPSGKGLEWLAHIWQDNVKRYNPALKSRLSISKDTSSSQVFLKIASMDTADTATYYCARIYYYGPYFDVWGAWTTVTVSL
notes: as for B1
B5: MI3-5 (scFv)
scFv: B2 scFv with S18T, A109T, R145G, L173F, V181A, C185R, P258S
notes: as for B1
B6: MI3-28 (scFv)
scFv: B2 scFv with A109P, R145G
notes: as for B1
B7: MI3-15 (scFv)
scFv: B2 scFv with S234F
notes: as for B1

Target: T1, angiotensin II-biotin (UniProt P01019 25-32, biotin attached (angiotensin II-biotin; chemical structure only in Figure 3))
T1 construct: Captured through its biotin on streptavidin (Biacore chip, ELISA plate) or on NeutrAvidin resin (selection); P01019 is the human angiotensinogen precursor, and angiotensin II is only a fragment of it; also called アンジォテンシン II-ピオチン
Experiment: SPR (Biacore 3000), angiotensin II-biotin on streptavidin chip

Row | Binder | binding result
1 | B1 | binds
2 | B2 | binds
3 | B3 | binds
4 | B4 | binds
5 | B5 | binds
6 | B6 | binds
7 | B7 | binds
